Values of other authors as cited in article PMC4507496.
Read-outs that look alike come from different tables or passages of the source.

What was measured:
[1] = biological target: ATG7 (Homo sapiens) (UniProt O95352); conditions: cited from earlier work
[2] = biological target: ATG7 (Homo sapiens) (UniProt O95352); conditions: cited from earlier work; remark: listed apart in the source

Sequence of ATG7 (Homo sapiens) (O95352 2-703): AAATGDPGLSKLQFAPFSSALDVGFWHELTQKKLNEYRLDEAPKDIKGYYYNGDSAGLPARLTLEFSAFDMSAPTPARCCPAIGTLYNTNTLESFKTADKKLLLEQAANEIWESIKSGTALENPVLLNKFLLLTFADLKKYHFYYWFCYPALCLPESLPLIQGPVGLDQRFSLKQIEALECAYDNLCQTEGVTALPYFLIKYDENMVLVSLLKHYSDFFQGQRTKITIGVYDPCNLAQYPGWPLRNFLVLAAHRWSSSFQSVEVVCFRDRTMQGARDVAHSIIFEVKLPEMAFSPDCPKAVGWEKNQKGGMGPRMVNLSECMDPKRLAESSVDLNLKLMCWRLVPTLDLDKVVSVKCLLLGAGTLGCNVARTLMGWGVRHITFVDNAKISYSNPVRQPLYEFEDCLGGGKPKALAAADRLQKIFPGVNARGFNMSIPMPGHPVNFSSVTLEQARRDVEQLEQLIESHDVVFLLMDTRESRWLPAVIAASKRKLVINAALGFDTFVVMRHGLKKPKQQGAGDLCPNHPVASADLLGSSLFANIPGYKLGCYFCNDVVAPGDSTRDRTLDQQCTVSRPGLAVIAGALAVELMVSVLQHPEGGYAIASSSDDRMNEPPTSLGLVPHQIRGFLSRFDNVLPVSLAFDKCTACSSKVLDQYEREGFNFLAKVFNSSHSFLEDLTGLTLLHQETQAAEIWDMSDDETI
Sequence of ATG3 (Q9NT62 whole entry): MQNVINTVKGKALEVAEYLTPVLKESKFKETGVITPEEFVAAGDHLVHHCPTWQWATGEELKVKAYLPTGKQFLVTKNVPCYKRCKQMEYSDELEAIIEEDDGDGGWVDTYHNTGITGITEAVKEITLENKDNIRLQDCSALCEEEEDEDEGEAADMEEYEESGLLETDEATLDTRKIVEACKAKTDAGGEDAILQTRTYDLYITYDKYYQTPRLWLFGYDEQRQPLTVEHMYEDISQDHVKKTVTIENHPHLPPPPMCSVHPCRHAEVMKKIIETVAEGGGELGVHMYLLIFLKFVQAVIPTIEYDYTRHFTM
Sequence of ATG3 flexible region flexible region (Q9NT62 90-190): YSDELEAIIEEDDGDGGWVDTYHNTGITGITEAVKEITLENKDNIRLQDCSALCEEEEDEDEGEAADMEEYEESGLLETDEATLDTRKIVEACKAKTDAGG

Substance	Kd [1]	Kd [2]
ATG3 flexible region flexible region (from UniProt Q9NT62)	> 70000 nM	
ATG3 (from UniProt Q9NT62)		2200 nM
